How the values were obtained:
Assay in all cases: flow cytometry, biotinylated IL-17C (1 ug/ml) + SA-PE on transiently transfected 293fb cells
human IL-17R = biological target: T1, human IL-17R (human, UniProt Q96F46 33-866)
T1 construct: whole, on cells
T1 sequence (looked up): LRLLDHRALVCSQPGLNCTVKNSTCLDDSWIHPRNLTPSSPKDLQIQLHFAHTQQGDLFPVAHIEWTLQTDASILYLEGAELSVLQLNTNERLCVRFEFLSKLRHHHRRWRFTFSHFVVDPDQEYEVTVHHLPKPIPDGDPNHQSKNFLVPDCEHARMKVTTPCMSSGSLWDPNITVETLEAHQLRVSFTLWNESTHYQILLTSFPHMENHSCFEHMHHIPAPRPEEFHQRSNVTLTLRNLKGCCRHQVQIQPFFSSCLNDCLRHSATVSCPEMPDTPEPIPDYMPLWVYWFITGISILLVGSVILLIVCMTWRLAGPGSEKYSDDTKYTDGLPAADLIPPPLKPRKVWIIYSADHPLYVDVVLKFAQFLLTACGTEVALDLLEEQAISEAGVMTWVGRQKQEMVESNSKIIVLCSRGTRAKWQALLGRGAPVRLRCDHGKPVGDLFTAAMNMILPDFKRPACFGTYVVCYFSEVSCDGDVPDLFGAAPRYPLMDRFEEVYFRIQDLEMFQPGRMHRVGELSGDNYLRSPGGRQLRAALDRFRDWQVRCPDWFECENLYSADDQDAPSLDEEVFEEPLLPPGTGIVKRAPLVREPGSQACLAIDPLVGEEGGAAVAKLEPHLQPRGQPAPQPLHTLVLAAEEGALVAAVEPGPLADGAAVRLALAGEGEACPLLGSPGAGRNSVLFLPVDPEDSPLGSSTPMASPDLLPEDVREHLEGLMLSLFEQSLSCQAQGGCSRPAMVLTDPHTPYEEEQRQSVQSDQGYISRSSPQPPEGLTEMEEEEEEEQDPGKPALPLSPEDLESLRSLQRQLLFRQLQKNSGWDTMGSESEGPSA
Description: (§1) 293fb cells that had been transfected with expression vectors encoding human ZcytoR21x1 and ZcytoR21x2 were assessed for their ability to bind biotinylated human IL-17C. Control transfections included 1) no DNA transfection, 2) vector only (pzmp11), and 3) human IL17R. 10⁶ cells were removed from transfected suspension cultures at day 1, day 2, day 3, and day 5. Cells were pelleted and resuspended in 100 ul of staining media (SM), which is HBSS plus 1 mg/ml bovine serum albumin (BSA), 10 mM Hepes, and 0.1% sodium azide (w/v). Biotinylated human IL-17C was incubated with the cells on ice for 45 minutes at a concentration of 1 ug/ml. An APC conjugated anti-human CD8 antibody (BD Pharmingen; cat.#555369) was also added at 1:25 dilution. After 30 minutes, excess cytokine and antibody was washed away with SM and the cells were incubated with a 1:100 dilution of streptavidin conjugated to phycoerythrin (SA-PE; BD Pharmingen; cat# 554061) for 30 minutes on ice. Excess SA-PE was washed away and cells were analyzed by flow cytometry.
(§2) The amount of cytokine binding was detected from the change in the mean fluorescence intensity of the cytokine staining relative to negative controls —1) no DNA transfection and 2) vector only. […] Binding was also seen to human IL-17R.

human ZcytoR21x2 = biological target: T2, human ZcytoR21x2 (human, UniProt Q8NFR9 24-667)
T2 construct: also called hcytor21x2
T2 sequence: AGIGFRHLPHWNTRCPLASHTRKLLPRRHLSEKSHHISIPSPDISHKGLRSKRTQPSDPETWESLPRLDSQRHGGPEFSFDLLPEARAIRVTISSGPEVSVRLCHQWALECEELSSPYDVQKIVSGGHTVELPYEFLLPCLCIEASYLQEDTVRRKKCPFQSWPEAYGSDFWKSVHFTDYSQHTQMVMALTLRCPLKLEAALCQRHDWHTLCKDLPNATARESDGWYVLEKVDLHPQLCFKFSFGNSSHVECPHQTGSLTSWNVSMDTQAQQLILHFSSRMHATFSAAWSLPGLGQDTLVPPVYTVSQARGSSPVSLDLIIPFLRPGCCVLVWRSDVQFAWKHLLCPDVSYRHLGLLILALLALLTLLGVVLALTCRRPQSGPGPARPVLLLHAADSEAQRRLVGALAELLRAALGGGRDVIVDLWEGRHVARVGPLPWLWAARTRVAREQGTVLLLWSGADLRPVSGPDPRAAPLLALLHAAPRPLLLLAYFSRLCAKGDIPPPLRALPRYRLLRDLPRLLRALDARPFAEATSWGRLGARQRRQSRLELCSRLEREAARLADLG
Description: as §1, §2

human ZcytoR21x1 = biological target: T3, human ZcytoR21x1 (human, UniProt Q8NFR9 24-667)
T3 construct: also called hcytor21x1; IL-17RE
T3 sequence: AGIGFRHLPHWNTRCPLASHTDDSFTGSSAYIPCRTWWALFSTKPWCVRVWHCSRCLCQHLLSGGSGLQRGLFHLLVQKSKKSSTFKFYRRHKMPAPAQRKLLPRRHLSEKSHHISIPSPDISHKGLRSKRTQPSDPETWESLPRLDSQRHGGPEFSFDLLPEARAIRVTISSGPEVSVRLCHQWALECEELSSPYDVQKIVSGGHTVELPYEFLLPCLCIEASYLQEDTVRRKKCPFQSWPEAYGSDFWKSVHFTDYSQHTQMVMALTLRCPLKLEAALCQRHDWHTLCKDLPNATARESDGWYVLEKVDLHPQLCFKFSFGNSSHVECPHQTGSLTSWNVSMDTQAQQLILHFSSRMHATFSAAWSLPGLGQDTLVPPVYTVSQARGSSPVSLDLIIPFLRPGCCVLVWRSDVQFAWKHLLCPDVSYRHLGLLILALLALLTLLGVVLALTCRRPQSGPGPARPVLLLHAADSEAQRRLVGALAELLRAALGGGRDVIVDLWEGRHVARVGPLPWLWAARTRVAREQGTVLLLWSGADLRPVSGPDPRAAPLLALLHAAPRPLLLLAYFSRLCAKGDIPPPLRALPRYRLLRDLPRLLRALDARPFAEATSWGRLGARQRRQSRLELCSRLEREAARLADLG
Description: as §1, §2

binding result (human IL-17R): binds
binding result (human ZcytoR21x2): binds
binding result (human ZcytoR21x1): binds
B1: human IL-17C (ligand)
chain: HHDPSLRGHPHSHGTPHCYSAEELPLGQAPPHLLARGAKWGQALPVALVSSLEAASHRGRHERPSATTQCPVLRPEEVLEADTHQRSISPWRYRVDTDEDRYPQKLAFAECLCRGCIDARTGRETAALNSVRLLQSLLVLRRRPCSRDGSGLPTPGAFAFHTEFIHVPVGCTCVLPRSV
modifications: biotin label in the binding assays (sites not given); unlabelled in the signalling assays
notes: it is the last residue of the open reading frame as I know it; Recombinant forms made carried a C-terminal Glu-Glu tag (BHK) or His tag (293F); also called biotinylated human IL-17C; human IL-17C (A903G)

From US20060142192A1 (ZymoGenetics, published 2006)
